According to patent US20230012273A1 (Boehringer Ingelheim, published 2023):
Positions count from the first letter of the chain named.

Columns and labels:
[1] = biological target: T1, human SIRPβ1 extracellular domain + His-tag (NP_006056.2) (human, UniProt O00241 30-371); assay: SPR, Ab captured, ECD-His analyte
T1 construct: also called hSIRPβ1; HuSIRPβ1
Procedure: (§1) The binding affinity of anti-SIRPα antibodies to the various SIRPα analytes is determined by surface plasmon resonance (SPR) using a ProteOn XPR36 (Bio-Rad). The running buffer for this experiment and all dilutions (except where stated) are done in 1×HBS-EP+. […] The sensorchip is deactivated with 1M ethanolamine HCl for 420 sec at a flowrate of 10 μl/min.
(§2) The analyte is injected over the captured antibody for 300 sec at a flowrate of 30 μl/min. The dissociation is done for 600 sec. Two-fold serial dilutions of each SIRP protein (Extracellular Domain+His-Tag) are injected as analyte with the highest concentrations indicated in table 36 below.

[2] = biological target: T2, human SIRPγ extracellular domain + His-tag (NP_061026.2) (human, UniProt Q9P1W8 29-360); assay: SPR, Ab captured, ECD-His analyte
T2 construct: also called hSIRPγ; HuSIRPγ
Procedure: as §1, §2

[3] = biological target: T3, human SIRPβL/SIRPβ1v3 extracellular domain + His-tag (NP_001129316.1) (human, UniProt Q5TFQ8 30-371); assay: SPR, Ab captured, ECD-His analyte
T3 construct: also called hSIRPβ1v3; HuSIRPβ1v3
Procedure: as §1, §2

[4] = biological target: T4, cynomolgus SIRPα extracellular domain + His-tag (XP_015313155) (cynomolgus monkey); assay: SPR, Ab captured, ECD-His analyte
T4 construct: also called CySIRPα XP_015313155; cynoSIRPα
T4 chain: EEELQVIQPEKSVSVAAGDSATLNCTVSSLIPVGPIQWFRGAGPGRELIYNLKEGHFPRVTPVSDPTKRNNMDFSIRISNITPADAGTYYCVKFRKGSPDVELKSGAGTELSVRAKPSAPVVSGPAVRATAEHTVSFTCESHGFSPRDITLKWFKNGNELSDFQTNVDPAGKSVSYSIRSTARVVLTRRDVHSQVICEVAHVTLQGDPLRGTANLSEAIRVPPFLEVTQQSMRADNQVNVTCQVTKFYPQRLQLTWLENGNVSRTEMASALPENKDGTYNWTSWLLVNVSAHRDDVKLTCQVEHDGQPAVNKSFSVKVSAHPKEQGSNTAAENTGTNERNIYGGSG
Procedure: as §1, §2

[5] = biological target: T5, cynomolgus SIRPβ1v3 extracellular domain + His-tag (XP_005568593) (cynomolgus monkey); assay: SPR, Ab captured, ECD-His analyte
T5 construct: also called Cyno SIRPβ1v3; cynoSIRPβ1v3
T5 chain: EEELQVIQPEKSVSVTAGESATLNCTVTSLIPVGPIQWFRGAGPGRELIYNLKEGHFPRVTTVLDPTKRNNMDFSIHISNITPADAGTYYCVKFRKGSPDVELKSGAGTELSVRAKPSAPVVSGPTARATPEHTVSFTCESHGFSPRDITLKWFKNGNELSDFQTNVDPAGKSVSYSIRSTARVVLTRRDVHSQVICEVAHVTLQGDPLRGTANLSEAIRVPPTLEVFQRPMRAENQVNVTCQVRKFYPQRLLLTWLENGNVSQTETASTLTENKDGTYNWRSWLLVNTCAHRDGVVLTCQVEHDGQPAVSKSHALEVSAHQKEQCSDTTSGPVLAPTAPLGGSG
Procedure: as §1, §2

[6] = biological target: T6, cynomolgus SIRPγ extracellular domain + His-tag (XP_005568591) (cynomolgus monkey, UniProt Q9P1W8 29-359 (human entry)); assay: SPR, Ab captured, ECD-His analyte
T6 construct: also called Cyno SIRPγ; cynoSIRPγ
T6 chain: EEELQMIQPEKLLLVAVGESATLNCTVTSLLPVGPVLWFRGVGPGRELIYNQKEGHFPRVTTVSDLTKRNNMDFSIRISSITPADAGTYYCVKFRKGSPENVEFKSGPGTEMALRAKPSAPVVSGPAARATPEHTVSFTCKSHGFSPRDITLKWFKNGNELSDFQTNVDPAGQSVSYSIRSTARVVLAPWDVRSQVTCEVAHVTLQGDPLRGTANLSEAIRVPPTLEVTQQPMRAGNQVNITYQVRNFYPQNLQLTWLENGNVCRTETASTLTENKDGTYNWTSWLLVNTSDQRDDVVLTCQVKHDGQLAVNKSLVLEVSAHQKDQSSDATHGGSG
Procedure: as §1, §2

[7] = biological target: T7, cynomolgus SIRPα extracellular domain + His-tag (EGM_02252) (cynomolgus monkey); assay: SPR, Ab captured, ECD-His analyte
T7 construct: also called CySIRPα EGM_02252; cynoSIRPα
T7 chain: T4 chain with D19E, V27A, S28T, A42V, N51H, L52Q, V227F, T245M
Procedure: as §1, §2

[8] = biological target: T8, cynomolgus SIRPβ1 extracellular domain + His-tag (XP_005568598) (cynomolgus monkey); assay: SPR, Ab captured, ECD-His analyte
T8 construct: also called Cyno SIRPβ1; cynoSIRPβ1
T8 chain: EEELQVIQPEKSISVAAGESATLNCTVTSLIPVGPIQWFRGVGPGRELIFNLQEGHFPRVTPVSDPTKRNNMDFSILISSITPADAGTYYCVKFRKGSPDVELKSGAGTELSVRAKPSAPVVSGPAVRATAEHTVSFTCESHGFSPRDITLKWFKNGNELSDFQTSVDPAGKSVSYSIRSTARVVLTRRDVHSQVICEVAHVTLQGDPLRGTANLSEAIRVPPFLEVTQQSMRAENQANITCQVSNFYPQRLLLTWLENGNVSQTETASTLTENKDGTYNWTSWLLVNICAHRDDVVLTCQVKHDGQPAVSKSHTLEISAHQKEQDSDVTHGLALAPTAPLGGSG
Procedure: as §1, §2

[9] = biological target: T9, cynoSIRPα (EGM_02252), Extracellular Domain + His-Tag (cynomolgus monkey); assay: SPR, antibody captured on Protein A/G, ECD-His analyte, steady-state fit
T9 construct: also called CySIRPα EGM_02252; not shown: His-Tag
T9 chain: T4 chain with D19E, V27A, S28T, A42V, N51H, L52Q, V227F, T245M
Procedure: (§3) The binding kinetics of anti-SIRPα antibodies to various SIRPα analytes are determined by surface plasmon resonance (SPR) using a Biacore 8K+(Cytiva). 1×HBS-EP+(Cytiva) is used as running buffer and for all the dilutions unless stated otherwise. The Series S CM5 sensorchip is activated with a 1:1 mixture of 0.1 M NHS (N-hydroxysuccinimide) and 0.4 M EDC (1-Ethyl-3-(3-dimethylaminopropyl) carbodiimide hydrochloride) for 420 seconds at a flow rate of 10 μl/min and immobilized with Protein A/G (Thermo Scientific, 10 μg/ml in 10 mM acetate pH 4.5) for 420 seconds at a flowrate of 10 μl/min resulting in approximately 3000 RU of Protein A/G on the surface. The sensorchip is then deactivated with 1 M ethanolamine HCl pH 8.5 for 420 seconds at a flowrate of 10 μl/min.
(§4) Antibodies (approximately 1 ug/ml) are captured on the Protein A/G surface for 60 seconds at a flowrate of 10 μl/min resulting in capture levels of approximately 240 RU. Dilutions of each SIRP protein (Extracellular Domain+His-Tag, with the concentrations as indicated) are injected as analytes over the captured antibody for 300 seconds of association at a flowrate of 30 μl/min, followed by a dissociation for 600 seconds.
(§5) The above procedures are used to measure binding properties of antibodies of the present disclosure. For each analyte used, the highest concentration was as indicated in Example 3 (see Table 36).

[10] = biological target: T10, cynoSIRPα (XP_015313155), Extracellular Domain + His-Tag (cynomolgus monkey); assay: as above
T10 construct: also called CySIRPα XP_015313155; not shown: His-Tag
T10 chain: T4 chain
Procedure: as §3, §4, §5

[11] = biological target: T11, cynoSIRPα (NP_001271679), Extracellular Domain + His-Tag (cynomolgus monkey); assay: as above
T11 construct: also called CySIRPα NP_001271679; not shown: His-Tag
T11 chain: T4 chain with P62A, F163V, V185L
Procedure: as §3, §4, §5

[12] = biological target: T12, Human SIRPαV1 (NP_542970.1), Extracellular Domain + His-Tag (human, UniProt P78324 31-373); assay: SPR, antibody captured on Protein A/G, ECD-His analyte, 1:1 fit
T12 construct: also called huSIRPαV1; hSIRPαV1; not shown: His-Tag
Outline: (§6)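 Biacore 8K+ at HBS-EP+, with antibodies (~1 ug/ml) captured on Protein A/G CM5 surface to ~240 RU. SIRPα ECD-His analyte dilutions injected at 30 μl/min for 300 s association, 600 s dissociation.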

[13] = biological target: T13, Human SIRPαV2 (CAA71403.1), Extracellular Domain + His-Tag (human, UniProt P78324 31-373); assay: as above
T13 construct: also called huSIRPαV2; hSIRPαV2; not shown: His-Tag
Outline: as §6

T13 sequence (P78324 other isoform, or with tags, fused parts or gaps): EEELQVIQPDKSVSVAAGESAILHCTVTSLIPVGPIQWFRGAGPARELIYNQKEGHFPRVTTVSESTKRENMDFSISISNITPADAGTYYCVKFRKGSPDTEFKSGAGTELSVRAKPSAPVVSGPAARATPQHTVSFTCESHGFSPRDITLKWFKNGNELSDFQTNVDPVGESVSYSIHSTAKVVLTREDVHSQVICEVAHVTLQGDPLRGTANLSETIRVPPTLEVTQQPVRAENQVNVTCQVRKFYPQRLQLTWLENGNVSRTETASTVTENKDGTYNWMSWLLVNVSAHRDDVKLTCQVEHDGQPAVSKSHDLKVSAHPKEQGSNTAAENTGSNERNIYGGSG
T12 sequence (P78324 other isoform, or with tags, fused parts or gaps): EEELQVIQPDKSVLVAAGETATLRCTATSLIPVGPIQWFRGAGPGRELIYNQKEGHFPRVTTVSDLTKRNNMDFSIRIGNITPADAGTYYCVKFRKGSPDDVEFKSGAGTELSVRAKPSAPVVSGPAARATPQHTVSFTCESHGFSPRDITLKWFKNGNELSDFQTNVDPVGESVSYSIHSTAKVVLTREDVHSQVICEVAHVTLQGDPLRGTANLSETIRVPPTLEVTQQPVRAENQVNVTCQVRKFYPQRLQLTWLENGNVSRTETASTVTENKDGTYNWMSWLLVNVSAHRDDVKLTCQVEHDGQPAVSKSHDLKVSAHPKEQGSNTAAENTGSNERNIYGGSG
T1 sequence (O00241 other isoform, or with tags, fused parts or gaps): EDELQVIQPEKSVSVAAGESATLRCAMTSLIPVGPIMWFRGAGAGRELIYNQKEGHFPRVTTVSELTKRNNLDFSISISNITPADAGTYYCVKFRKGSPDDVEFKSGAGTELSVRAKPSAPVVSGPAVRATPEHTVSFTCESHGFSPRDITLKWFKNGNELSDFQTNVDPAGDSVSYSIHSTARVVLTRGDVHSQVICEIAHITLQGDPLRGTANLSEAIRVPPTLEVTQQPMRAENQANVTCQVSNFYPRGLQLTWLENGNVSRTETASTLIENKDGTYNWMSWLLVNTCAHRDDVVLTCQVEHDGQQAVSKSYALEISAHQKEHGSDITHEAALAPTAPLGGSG
T3 sequence (Q5TFQ8 other isoform, or with tags, fused parts or gaps): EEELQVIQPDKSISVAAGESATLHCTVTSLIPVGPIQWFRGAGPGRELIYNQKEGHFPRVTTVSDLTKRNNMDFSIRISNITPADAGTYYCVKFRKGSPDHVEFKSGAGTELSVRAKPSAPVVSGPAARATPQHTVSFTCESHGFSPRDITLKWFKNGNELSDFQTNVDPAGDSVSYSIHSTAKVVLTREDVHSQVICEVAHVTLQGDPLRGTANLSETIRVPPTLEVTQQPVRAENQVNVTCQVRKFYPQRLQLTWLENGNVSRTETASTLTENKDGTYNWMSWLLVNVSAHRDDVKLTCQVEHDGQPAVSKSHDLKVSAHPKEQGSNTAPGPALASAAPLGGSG
T2 sequence (Q9P1W8 29-360): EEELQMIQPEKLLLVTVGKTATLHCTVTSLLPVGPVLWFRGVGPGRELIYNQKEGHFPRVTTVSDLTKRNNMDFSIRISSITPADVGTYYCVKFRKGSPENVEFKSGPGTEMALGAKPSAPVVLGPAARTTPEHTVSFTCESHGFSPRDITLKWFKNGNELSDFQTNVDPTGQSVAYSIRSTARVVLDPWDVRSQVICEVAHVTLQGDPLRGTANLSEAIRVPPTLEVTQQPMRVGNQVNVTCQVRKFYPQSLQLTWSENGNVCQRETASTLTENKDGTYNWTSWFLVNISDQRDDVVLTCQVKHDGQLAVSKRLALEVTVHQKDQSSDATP

B1: Antibody A1 (antibody, human IgG1, kappa, L234A L235A, V domains shown)
VH: EVQLVESGGGLVQPGGSLRLSCAASGFTLSSYDMHWVRQAPGKGLEWVSAIGTAGDTYYTGSVKGRFTISRENAKNSLYLQMNSLRADDTAVYYCVRGGVWDDAFDIWGQGTMVTVSS
VL: DIQMTQSPSSLSASVGDRVTITCRASQGINNYAAWFQQKPGKAPKSLIYTASSLHSGVPSKFSGSGSGTDFTLTISSLQPEDFATYYCQQYVSYPYTFGQGTKLEIKR
notes: also called Antibody Al
B1: no binding (tested: 1000 nM) [1]; no binding (tested: 1000 nM) [2]; no binding (tested: 100 nM) [3]. For the same binder, the Kd [4] was 369 nM, the Kd [5] was 557 nM and the binding result [6] was “no binding (tested: 1000 nM)”. For the same binder, the Kd [7] was 543 nM and the binding result [8] was “no binding (tested: 1000 nM)”.

B2: Antibody A14 (antibody, human IgG1, kappa, L234A L235A, V domains shown)
VH: B1 VH with D88S
VL: B1 VL with G28D, A33L
B2 was tested, and the Kd [9] was 222 nM, the Kd [10] was 176 nM and the Kd [11] was 316 nM. For the same binder, the Kd [12] was 8.13 nM, the koff [12] was 0.00397 s⁻¹ and the kon [12] was 488000 M⁻¹ s⁻¹. The Kd [13] was 7.95 nM, the koff [13] was 0.00648 s⁻¹ and the kon [13] was 816000 M⁻¹ s⁻¹.

B3: Antibody A9 (antibody, human IgG1, kappa, L234A L235A, V domains shown)
VH: B1 VH
VL: B1 VL with G28D, A33L
For B3, the Kd [9] was 230 nM, the Kd [10] was 174 nM and the Kd [11] was 346 nM. For the same binder, the Kd [12] was 7.34 nM, the koff [12] was 0.00363 s⁻¹ and the kon [12] was 495000 M⁻¹ s⁻¹. For the same binder, the Kd [13] was 8.25 nM, the koff [13] was 0.00652 s⁻¹ and the kon [13] was 791000 M⁻¹ s⁻¹.

B4: Antibody A12 (antibody, human IgG1, kappa, L234A L235A, V domains shown)
VH: B1 VH with P41T, D88S
VL: B1 VL with G28D, A33L
In the case of B4, the Kd [9] is reported as 247 nM, the Kd [10] is reported as 195 nM and the Kd [11] is reported as 384 nM. For the same binder, the Kd [12] was 7.83 nM, the koff [12] was 0.00378 s⁻¹ and the kon [12] was 482000 M⁻¹ s⁻¹. The Kd [13] was 8.96 nM, the koff [13] was 0.00689 s⁻¹ and the kon [13] was 769000 M⁻¹ s⁻¹.

B5: Antibody A16 (antibody, human IgG1, kappa, L234A L235A, V domains shown)
VH: B1 VH with D88G
VL: B1 VL with G28D, A33L
B5 showed a Kd [9] of 224 nM, a Kd [10] of 174 nM and a Kd [11] of 306 nM. It also gave a Kd [12] of 7.98 nM, a koff [12] of 0.00377 s⁻¹ and a kon [12] of 472000 M⁻¹ s⁻¹. It also gave a Kd [13] of 8.22 nM, a koff [13] of 0.0063 s⁻¹ and a kon [13] of 766000 M⁻¹ s⁻¹.

B6: Antibody A13 (antibody, human IgG1, kappa, L234A L235A, V domains shown)
VH: B1 VH with D88A
VL: B1 VL with G28D, A33L
In the case of B6, the Kd [9] is reported as 223 nM, the Kd [10] is reported as 177 nM and the Kd [11] is reported as 330 nM. For the same binder, the Kd [12] was 7.28 nM, the koff [12] was 0.00352 s⁻¹ and the kon [12] was 484000 M⁻¹ s⁻¹. For the same binder, the Kd [13] was 8.36 nM, the koff [13] was 0.00635 s⁻¹ and the kon [13] was 760000 M⁻¹ s⁻¹.

B7: Antibody A15 (antibody, human IgG1, kappa, L234A L235A, V domains shown)
VH: B1 VH with D88E
VL: B1 VL with G28D, A33L
B7 gave a Kd [9] of 224 nM, a Kd [10] of 174 nM and a Kd [11] of 317 nM. It also gave a Kd [12] of 7.06 nM, a koff [12] of 0.00371 s⁻¹ and a kon [12] of 526000 M⁻¹ s⁻¹. It also gave a Kd [13] of 7.91 nM, a koff [13] of 0.00671 s⁻¹ and a kon [13] of 848000 M⁻¹ s⁻¹.
